The record followed here is PMC9287160 (2022).

What all share (assay): BLI
On the technique in general: Biolayer interferometry detects binding as a change in optical thickness at a sensor tip.

In assay [1] the target is T1, recombinant human αMβ2 αI domain (human).
T1 chain: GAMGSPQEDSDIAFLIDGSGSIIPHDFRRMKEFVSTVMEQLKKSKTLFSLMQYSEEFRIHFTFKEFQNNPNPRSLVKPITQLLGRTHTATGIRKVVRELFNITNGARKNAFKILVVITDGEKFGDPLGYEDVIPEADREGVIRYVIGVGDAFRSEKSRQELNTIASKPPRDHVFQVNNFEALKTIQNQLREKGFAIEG

Assay [2] concerns the target T2, human integrin αMβ2 headpiece fragment (human, UniProt P11215 17-1152; P05107 23-482).
Assay [3] has as its target T1, recombinant human αMβ2 αI domain.
Assay [4] has as its target T2, human integrin αMβ2 headpiece fragment. This is another data set of the same source.

B1: biotinylated avi-tagged hCD11bNb1 (VHH)
VHH: QVQLVETGGGLVQAGGSLRLSCAASGNINSFNAMGWFRQAPGKQRELVAAITFGGRTNYADSVKGRFTISRDNTKGSVYLQMNSLKPEDTAVYYCAASENNLLTGVWHYWGRGTQVTVSS
modifications: biotin
For B1, the figures for the koff in assay [1] and in assay [2] were 0.0032 s⁻¹ and 0.00047 s⁻¹, respectively. The results for the Kd in assay [3] and in assay [4] were 6.6 nM and 0.85 nM, respectively.
